# Assay: soluble on expression in E. coli; label from the status in PepcDB or PDB records
row,Sequence,soluble on expression in E. coli
1,MYGTEQVISGTIIAGPELDPIEGYICVKNGIITEIGEEHTYSANIIAPCFVNAHTHLGDSVCKDPPLGKTSGFRVQKDLDSLVKPPDGLKHRILRDTSYKTLIQYIRKSLLDMIETGTCAFADFREGGVVGLAALNKALEGLNLHSLIFGRPTEPQLPLEVVLAEVRRVLSHSDGLGMSGANDLDMELLQEMTTCTRDRKKLFAIHAGEKNRSDIEKALSLEPDLLIHLTHATKKDLEDVAQTGAPVVVCPRSNFVTGSGMAPIAEMLEAEIRVAAGTDNVMLNSVNMFAEMEFMSKVFSIEDRQVFKICTLNGSFVMGPDSTGSIEKGNKANLMILNGSSNNLAGIKDPISGITKRARPDDILAVLHS,soluble
2,MGSDKIHHHHHHARTILREELAQNSINKYSVKQYCQASGVGRASFYSTYNGMPDLFCNTLQFEIRKHFQNYSDCNSRKLVYALLKEIGDHRIYYTNIYRLTNKNTSKIHICHQINHAFFTEMQKHLQNSNCSNKQIQSMTNIIFSRVVSWVAHNCKEKVLDVYVDLEYVLPSN,not soluble
3,MGSDKIHHHHHHMDQSWVNQAIAKIEADYQRSADTHLIKLELPMLPCIDIYLKDESTHPTGSLKHRLARSLFLYALCNGWITQDTPIIESSSGSTAVSEAYFARLLGLPFIAVMPASTAKKKIQQIEFYGGRCHFVEHSSQIYAESQRLAEELSGHYMDQFTYAERATDWRGNNNIANSIFEQMQREPHPVPSWIVMSPGTGGTSATIGRYIRYQCAKTKLCVVDPENSVFYDYYHSGDASISCAGASRIEGIGRPRAEPSFIPGVVDHMVKIDDSASIATIYWLETLIGRKAGPSTGTNLYGALQLASEMHANGQTGSIVTLLCDSGDRYLDTYYDKQWVDEHIGDITEYQAKLAAFNESGHLE,not soluble
4,MSLDNDIFKLNVYIKNIDTSKSNLRYTEGYLQSLTNILTRAKEIAIQGASGTYESDDKKMISKEVNALLEDVVAIANAKGPDGYSIFSGTKIDSEAFKVTRENKISKTSKDGAGPQIIKVEYNGNQAEKKTEVYNDIHMSNNYPGNVIFFLQNQNIISSINTNGFAVKENTKIYIDNIEIGLTAGDTALDIVAKINESSAPVEASIDPVLNSLSIKTTTPHQIWITEEKESNVLQTLGILTKNNDTKLPPYNLSSSTEVRSRSIFDALIELRDTLYNNKEELVGSRSLAEIDESLKRLLISVADLGAKENRLDRSYERISKEAADMKEDMIQYTDLDVTKAITNLNMASLAYQVSIGISAKIMQTTLLDFIKEGHHHHHH,not soluble
5,MTPLVKDIIMSSTRMPALFLGHGSPMNVLEDNLYTRSWQKLGMTLPRPQAIVVVSAHWFTRGTGVTAMETPPTIHDFGGFPQALYDTHYPAPGSPALAQRLVELLAPIPVTLDKEAWGFDHGSWGVLIKMYPDADIPMVQLSIDSSKPAAWHFEMGRKLAALRDEGIMLVASGNVVHNLRTVKWHGDSSPYPWATSFNEYVKANLTWQGPVEQHPLVNYLDHEGGTLSNPTPEHYLPLLYVLGAWDGQEPITIPVEGIEMGSLSMLSVQIGLEHHHHHH,soluble
6,MYQVIKMYGDWEPWWFIDGWQDDIIDEQQFSDWQEALDYFNQEWQRMKAIFPSYHSQKNLLATFWEKEDKRWCEDCDEDLQQFHSLLLLKNKDIVPSNNYIPEFEQRNDSPQVAYLCKLNLLEHHHHHH,soluble
7,MGSDKIHHHHHHMTENKPSEQTNELKDLVVEKEFNQTLDDLLANPFGSDGESAASIVNNETDAAPRLVDMLTETNKKQALELSKQIEPGNQAAILGYGAPAQAKLHDFSHSMLAHVQKQDVGPIGDIISDLMYRLQEADPDELAARNKNVFTKMFHRVKQSINEITSKYQKIGTQIDRIALKLEHSKKRLMEDNSFLEQLYDKNKDYFQALNIYIAAGELKLEEINTKMLPELRKKAEQTGDQMDYQEVNDLTQFADRLDKRVYDLRLSRQITIQQAPQIRLIQNTNQALAEKIQSSIMTAIPLWKNQVAIALTLLRQQQAVAAQRQVSETTNELLKRNADMLKTNAIETARENERGIVDIETLKETQSSLIETLQETLKIQQEGRAKRAVAEKELVTMEQELKERLLEMK,not soluble
8,MMHGGFAMIIDQYWGKYFGDSADSQRLAQYLAGKNREVLTTSEIFQDFQLAQLSGNYTQASLDGAGWHFDSAFQFVIDLAVLVLESKKVGRFSIARIGGPEDRFMRIDAATDELLPITMALKHYALAPEDYLFSHGIDVDDWYELGNLCEEIRAQLEA,not soluble
9,MAPTLAEAEKFLRNSKIDKIVLEKLAEILVTTMDDWNLIADQKVAESVWVVLTEAGRSGNLSENLGDGDVAKQLKSVFEKIRLRLQAQLGTIQWKNDELVDYDVTISKNNKSSLHADHTFQRVVLTLKVIPAGKMDVEALVVDFDEAQLNDFIWKLLEAKAMMDRIQKRVESR,not soluble
10,MDYIKGIAFDLYGTLFDVHSVVGRCDEAFPGRGREISALWRQKQLEYTWLRSLMNRYVNFQQATEDALRFTCRHLGLDLDARTRSTLCDAYLRLAPFSEVPDSLRELKRRGLKLAILSNGSPQSIDAVVSHAGLRDGFDHLLSVDPVQVYKPDNRVYELAEQALGLDRSAILFVASNAWDATGARYFGFPTCWINRTGNVFEEMGQTPDWEVTSLRAVVELFETAAGKAEKG,soluble
11,MVKEGWMVHYTSRDNLRKRHYWRLDSKCLTLFQNESGSKYYKEIPLSEILRISSPRDFTNISQGSNPHCFEIITDTMVYFVGENNGDSSHNPVLAATGVGLDVAQSWEKAIRQALM,soluble
12,MAGGLIRGKLIAIIGDEDTVTGFLLGGIGELNKNRKPNFLVVEKETSVTEIEETFRSFLNRDDIGIILINQFIAEMIRHAIDAHTISIPAVLEIPSKEHPYDATKDSILRRAKGMFTVDDLR,soluble
13,MSLKNTLILGIESSCDETAASVVKNGNEIISSVVASQIESHKRFGGVVPEIASRHHVEQITLVIEEALKQANVTMDDLDGVAVTEGPGLVGALLIGVNAAKTLAFMHNLPLVGVHHIAGHIYANRFETEFKFPLLSLVVSGGHTELVLMKADNEFEIIGETRDDAAGEAYDKVARTLGLAYPGGVQIDKLAKDGEDTFHFPRAMMDEGSFDFSFSGLKSSFINTLHNLRQRGEEPNPNDMAASFQASVVDVLVSKTIRAAKQYDVKQLLLAGGVAANQGLRERLIQEVKLELPETELIIPPLALCGDNAAMIAAAGTVSFLQGKRSGFDMNANPGLLLEDIEGHHHHHH,soluble
14,MTYILKTNQLTKVFKGKEVISSVNMHVKKGEIYGFLGPNGAGKTTIMKMITNLIKPTSGEIEIFGEKLTDTSYEVLKRMGTIIEYPIFYDKLTAKENLELHCEYMGYYDKNEIDHALHLVKLQGIDNKKVKDFSLGMKQRLGIARAIVTKPELLILDEPINGLDPIGIKELRDLFKMLCKEYGITLLVSSHILGEMELMADTIGVIQNGKLIKEVSMKSINGKQTEYIEITVPDVKRAAYILEDKLGIKNYKIMSGNMIRVYDTAVSQQAISKALIMNDVEIESINKKHSSLEEYFLNVMDGEGIHA,not soluble
15,MSTARFADPDQIRAGFSRAMSQMYQHEVPLYGTLMELVSEVNAQVMSRDSQVLNSLRQTGEIQRLDMERHGAIRVGTAQELATLARLFAVMGMQPVGYYDLTAAGVPVHSTAFRAVHEQALQVSPFRVFTSLLRLELIESDSLREFASRVLAKRTIFTPGALALIEKHEADGGLSEPDAAEFIQQALETFRWHHTATVSLDEYRQLNAQHRLIADVVAFRGPHINHLTPRTLDIDAVQSGMPGKGITPKAVVEGPPPRQCPILLRQTSFKALEEPISFIGQGGSQSGSHSARFGEIEQRGAALTPKGRELYDRLLNEARDALGEFPNEANAVRYAGLLEKAFQAFPDSHDEMRAQGLAYFRYFPTDTGVAVRVSGTLEQLIEAGHVRFEPLAYEDFLPVSAAGIFQSNLGDNAQAHYAANSNRQDFERALGRGTLDELALYADTQRRSLEDCAEVLGLNESLEHHHHHH,not soluble
16,SRIKMKKARKILAEKRAAAPVVSVPCIPPHRLSKITNRLTIQRKSQFMQRLHSYWTLKRQSRNGVPLLRRLQTHLQSQRNCDQVGRDSEDKNWALKEQLKSWQRLRHDLERARLLVELIRKREKLKRETIKVQQIAMEMQLT,not soluble
17,MGSDKIHHHHHHMTKEASRPALDLARQAYEAFKARGLNLNMQRGQPADADFDLSNGLLTVLGAEDVRMDGLDLRNYPGGVAGLPSARALFAGYLDVKAENVLVWNNSSLELQGLVLTFALLHGVRGSTGPWLSQTPKMIVTVPGYDRHFLLLQTLGFELLTVDMQSDGPDVDAVERLAGTDPSVKGILFVPTYSNPGGETISLEKARRLAGLQAAAPDFTIFADDAYRVHHLVEEDRAEPVNFVVLARDAGYPDRAFVFASTSKITFAGAGLGFVASSEDNIRWLSKYLGAQSIGPNKVEQARHVKFLTEYPGGLEGLMRDHAAIIAPKFRAVDEVLRAELGEGGEYATWTLPKGGYFISLDTAEPVADRVVKLAEAAGVSLTPAGATYPAGQDPHNRNLRLAPTRPPVEEVRTAMQVVAACIRLATEEYRAGH,not soluble
18,MVTDHGYKCRITNIVPLSEHEKLFQLRIVDPRERELFTFRPGQFLMLEVPGYGEAPISISSATSNREFIELCIRKAGHVTSALFEAKQGAFVAVRGPFGTSFPMEAMQDHDVLLIAGGLGIAPLRAPLFWINDHRDHYRNVSFLYGAKEPSQMLFTYQFEEWKTVSHIDLHTIVEKPDDQWTGRTGMITLLFDEITIDPKNTWAIVCGPPVMFKFVCTHLDKLGIPMNRMFVSLERHMNCGMGKCCRCMVGSTFTCLDGPVFDYWSVMNLKEAI,not soluble
19,MKHLVICIALLTVGACCFAQQKKVASHKAASGNPVFQGWYADPEGIIYDDTYWIFPTWSDLYENQTFFDCFSSKDLVNWTKHASVLDTTAVKWAKKAMWAPSVIRKNGKYYIFFGANDVHEGEIGGIGVAVSDRPEGPYKDLLGKPLINEIVNGAQPIDQFVYNDNGHYYMYYGGWGHCNVVQLNDDFTGLVPFEDGTVYKEVTPENYVEGPFMFKKDGKYYFMWSEGGWGGPDYSVAYAISDSPFGPFKRVAKILQQDPSVATSAGHHSLLHAPGTDDYYIVYHRRPLNDNARDHRVTCIDKMTFDKDGFINPVKMTFEGVPAQKIKKSKKK,not soluble
20,MGSDKIHHHHHHMRLTHVDQLNLPFGTLSSYHPYASAPGEAVPVSFDQQRHVGAGERPGSWMAISVSMPKAISREELERAWLEVIERHGTLRTVFSTGMGGEVQQHRIDVGPGKWIDHAVAPGESINEALRAVLNRQCSPYSRPSHSLCIIDAHPRPTVIIGSDHSHVDMWSMLVIVRDLLAALDMELPVEPPLAFESHTAELLAAPPAPERIHQRWREILEAGGGKMPQFPLPLGDAISMPERVEVRDIFGVNGLAIYSARARAQQVSSLALTISVMADVTAALADLPLRAVFPVHSRFDQRWHDSVGWFISNSVIEVPDSDPHTAAQAVREAVSLGSYPLAELLEPWGGMPETPGMFAISWLDLRRLPVSIDDIGLQAQYVSASLRTDGVMLWFILDRSGAHLRCRYPDSLVARENVGRWIDAIVAQMRAEAGTVNLQAGGEQLTLRHGTRADISEIAPLLARNAADPCELVDLEHALDLLTHESSHFLAVVRNARGKIIAAMQLTIVPEFSRGGALHLHIEGPFIIPEYRTTDLDKKLRAWAVEHGRARGVKVEEVVG,not soluble

# Source: the DeepSol protein solubility set
